± gives the standard deviation.
Assay: protein stability index of a GFP-peptide fusion (GPS, HEK-293T) (PSI 1-6); higher = more stable
[1] = treatment: DMSO, c terminus: a fixed tail appended
[2] = treatment: MLN4924 1 uM, 8 h, c terminus: a fixed tail appended
[3] = treatment: DMSO, c terminus: native
[4] = treatment: MLN4924 1 uM, 8 h, c terminus: native
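Note: 24-mer peptide tiles fused after GFP, lentivirally expressed, FACS-sorted into six equal bins by GFP/DsRed ratio, decoded by Illumina sequencing, PSI is the read-weighted mean bin number.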

Row | Sequence | protein stability index [1] | protein stability index [2] | protein stability index [3] | protein stability index [4]
1 | YLNSFLHQRIPQSVRILGSLVAIL [SLC29A1] | 2.15 ± 0.25 | 2.23 ± 0.21 |  | 
2 | RCHRGYTLDPNGKTCSRVDHCAQQ [MATN2] | 3.68 ± 0.28 | 3.22 ± 0.34 |  | 
3 | RHKQPTLLMVRASRRSGKTSAVLK [C6orf223] | 3.29 ± 0.26 | 3.45 ± 0.24 |  | 
4 | TEWACILRRKTPRHKQPTLLMVRA [C6orf223] | 2.19 ± 0.57 | 2.17 ± 0.097 |  | 
5 | TPEELTILGETQEEEDEILPRKDY [CLCN6] | 5.51 ± 0.13 | 5.54 ± 0.21 |  | 
6 | KISGGPHISYPPLHEWVLREGEE [MAGEA3] |  |  | 2.92 ± 0.62 | 3.33 ± 0.43
7 | GIGGGIGGGSSRISSVLAGGSCRA [KRT16] | 3.87 ± 0.23 | 4.05 ± 0.24 |  | 
8 | LLLGAGESGKSTIVKQMKIIHEAG [GNAI1] | 2.51 ± 0.47 | 2.54 ± 0.65 |  | 
9 | NAKTEQGPTGVTMTSNPITWGQIK [CDK11A] | 4.19 ± 0.16 | 4.12 ± 0.24 |  | 
10 | NVAATGISQYEDDLPPPPADPVLD [APBB1IP] | 5.36 ± 0.18 | 5.45 ± 0.19 |  | 
11 | QLSATGQKLYVRLFQRKLSWIKMT [FAN1] | 2.3 ± 0.6 | 2.04 ± 0.17 |  | 
12 | EFAEMVEREEEDDALDSEGRDSEG [KCNG1] | 5.68 ± 0.22 | 5.62 ± 0.29 |  | 
13 | VSKVTGWCRDRLLGHREPSAHPVE [TMEM175] | 3.21 ± 0.22 | 3.33 ± 0.099 |  | 
14 | HESFFSLFSDPRSTRLTRIHLRED [ZER1] | 3.04 ± 0.26 | 3.14 ± 0.11 |  | 
15 | PTPMPHNKGTRFSEAWEYFHLAPA [ZBED2] | 2.65 ± 0.2 | 2.71 ± 0.33 |  | 
16 | KDGKLLAATLLLALLSCCLTVVSF [TNFSF13B] | 3.26 ± 0.39 | 3.35 ± 0.32 |  | 
17 | SSMFSGSWKESSMNIIELEIPDQN [GMCL1] | 3.53 ± 0.29 | 3.67 ± 0.5 |  | 
18 | TTPLSPTRLSRLQEKEELRELNDR [LMNB1] | 5.18 ± 0.39 | 5.1 ± 0.18 |  | 
19 | EDDPLLDAQLLPHHSLQAHFRPRF [TMEM192] | 3.57 ± 0.35 | 3.53 ± 0.15 |  | 
20 | RDGRRDRYSSDTTPLLNGSSQDRM [GOSR1] | 4.76 ± 0.07 | 4.85 ± 0.2 |  | 
21 | CKARMERDGYGMTPLLAASVTGHT [FEM1A] | 2.9 ± 0.32 | 2.87 ± 0.2 |  | 
22 | HTVPDFHLSSPAKNFFKKAAAALF [PLK2] | 2.74 ± 0.96 | 2.65 ± 0.73 |  | 
23 | LMYPSYTFSGDVQLAQDDIDGIQA [MMP1] | 4.1 ± 0.15 | 4.25 ± 0.25 |  | 

Row | Sequence | protein stability index [1] | protein stability index [2] | protein stability index [3] | protein stability index [4]
24 | DSTNVEAAFQTILTEIYRIVSQKQ [RAB11A] | 2.26 ± 0.35 | 2.46 ± 0.034 |  | 
25 | YLSNARPDNWFCYPCIPNHELVWA [ZMYND11] | 2.67 ± 0.34 | 2.23 ± 0.49 |  | 
26 | GLADVEANYVIVRAYQYTTLTSVQ [SLC35F2] | 2.24 ± 0.53 | 2.66 ± 0.43 |  | 
27 | SPRDEYKPLDLSDSTLSYTETEAT [SMAD6] | 5.45 ± 0.24 | 5.41 ± 0.23 |  | 
28 | EMLSASRYPTISMVKPLLHMLLNT [ZBED1] | 2.6 ± 0.81 | 3.02 ± 0.79 |  | 
29 | IGESMYGDFEEAFDHLQNRLIATK [TENT5C] | 3.63 ± 0.12 | 3.59 ± 0.067 |  | 
30 | CCRACSVSFSTGAGGWSNHHFCVI [BET1L] | 2.42 ± 0.26 | 2.35 ± 0.33 |  | 
31 | KKAQGKTQQNRKLTDFYPVRRSSR [KMT5A] | 3.29 ± 0.54 | 3.86 ± 0.39 |  | 
32 | MLRQLLLAALCLAGPPAPARACQL [CCDC3] | 3.47 ± 0.045 | 2.76 ± 1.1 |  | 
33 | MEEVCGGEKPYLSPDILEEKHCEF [ATL3] | 5.15 ± 0.29 | 5.01 ± 0.14 |  | 
34 | QEITSETEDLCEKPDDEVKETAHD [RIPK4] | 5.6 ± 0.17 | 5.69 ± 0.21 |  | 
35 | ITSSIPDTERLDDFHLSIHSDMAA [DVL3] | 4.08 ± 0.22 | 4.3 ± 0.17 |  | 
36 | PEPRSEVVPARLKRASAPTFDNDY [RIPK4] | 4.86 ± 0.47 | 4.63 ± 0.36 |  | 
37 | SQSLALKEQNNLKQLEFGLKEAPV [ZNF8] | 4.7 ± 0.24 | 4.44 ± 0.16 |  | 
38 | SVIKDHHTRSITSCCFDPDSQRVA [WDR88] | 3.35 ± 0.2 | 3.41 ± 0.38 |  | 
39 | MDRKTRFIIHGFIDKGDESWVTDM [PNLIPRP1] | 2.48 ± 0.66 | 2.51 ± 0.19 |  | 
40 | MPDTFNSRSPSVEGSLWAVGTESQ [PXN] | 4.31 ± 0.16 | 4.38 ± 0.12 |  | 
41 | GVGTSMEGASPLSERCQRQLQSLC [FANCE] | 3.9 ± 0.16 | 3.78 ± 0.15 |  | 
42 | QELEEEIKELYENFCKHNGSKNVF [ATL3] | 3.02 ± 0.32 | 3.57 ± 0.48 |  | 
43 | SLSHINAYACLVCGKYFQGRGLKS [USP39] | 2.14 ± 0.39 | 2.07 ± 0.42 |  | 
44 | DWASNKVMFKIGDLGHVTRISSPQ [WEE1] | 2.53 ± 0.25 | 2.64 ± 0.41 |  | 
45 | LCAPEVISLINTRMLFWACSTNKP [FAF2] | 3.04 ± 0.47 | 2.88 ± 0.41 |  | 
46 | FVFFVLLNMFLAIINDTYSEVKEE [PKD2L1] | 3.36 ± 0.23 | 3.12 ± 0.26 |  | 

Row | Sequence | protein stability index [1] | protein stability index [2] | protein stability index [3] | protein stability index [4]
47 | NILFYVVGLRNTLTRIRKWIEHSK [GLT8D2] | 2.59 ± 0.18 | 2.76 ± 0.46 |  | 
48 | QQQCHEMAERLEDSVLKGMQAASS [SDE2] | 4.17 ± 0.33 | 4.2 ± 0.41 |  | 
49 | DGYGMTPLLSASVTGHTNIVDFLT [FEM1C] | 3.01 ± 0.27 | 3.1 ± 0.28 |  | 
50 | RGLRGPNLTSPASITFTTGLEAPR [TNXB] | 3.84 ± 0.2 | 3.92 ± 0.47 |  | 
51 | PFEPQALGLSPSWRLTGFSGMKG [SEPHS2] |  |  | 2.51 ± 0.53 | 2.64 ± 0.25
52 | QPSFEPTKNKELTDEFRELRATVE [FADS1] | 4.98 ± 0.19 | 4.86 ± 0.35 |  | 
53 | AKPEALSSPKFREEAAFPGRRVNA [ELOA2] | 4.48 ± 0.25 | 4.59 ± 0.17 |  | 
54 | ASSRSQQSSKRSSRSVEDDKEGHL [CLK3] | 5.44 ± 0.079 | 5.52 ± 0.29 |  | 
55 | VRVVFFPLFSNWWIQVTSLRIFVW [PHTF1] | 2.79 ± 0.69 | 2.87 ± 0.77 |  | 
56 | NSLQSYQLSPNKHFSLRVQSRANG [PCDHGA10] | 3.41 ± 0.077 | 3.64 ± 0.42 |  | 
57 | QIMFDVEMHTSRDHSSQSEEEVVE [BNIP3L] | 5.33 ± 0.063 | 5.37 ± 0.22 |  | 
58 | EPVLTQTSEQAPSSAPRDVQARML [PTPRD] | 5.13 ± 0.26 | 5.31 ± 0.26 |  | 
59 | ALLKFREDEGFVREEEDRALPENE [KCNA4] | 5.31 ± 0.32 | 5.43 ± 0.19 |  | 
60 | VPRYTGVAPQDQCKLTCQAQALGY [ADAMTS4] | 2.4 ± 0.47 | 2.65 ± 0.36 |  | 
61 | NGTYAGPAPAFQPFFFTGAFPFNM [ANKRD40] | 2.32 ± 1.2 | 2.51 ± 0.5 |  | 
62 | AENYLSGGGPGDGGGADTGTGGEE [FBXO33] | 5.42 ± 0.31 | 5.55 ± 0.23 |  | 
63 | GFVDLLDGENLKNEEETPSCMASL [CDC25A] | 4.64 ± 0.25 | 4.62 ± 0.13 |  | 
64 | FLDKSGSHGYDMSTFIRRYSRYLN [SNAP91] | 2.38 ± 0.4 | 2.64 ± 0.49 |  | 
65 | RFHRARWGLEEEDFQPREEAMLYH [P3H4] | 2.93 ± 0.11 | 2.9 ± 0.13 |  | 
66 | QVETSIEGTIPFSKPVKVYIMPKP [INTS4] | 2.65 ± 0.33 | 2.65 ± 0.42 |  | 
67 | FRIYKSVIQAVQKSEEGHPFKAYL [RTN3] | 2.4 ± 0.23 | 2.29 ± 0.21 |  | 
68 | VKAKEQIENYKKQTRNGLGKDHEI [FUT8] | 4.59 ± 0.17 | 4.76 ± 0.16 |  | 
69 | QHYFYDYDCGEDFYRSTAPSEDIW [MYCL] | 2.63 ± 0.49 | 2.59 ± 0.33 |  | 

Row | Sequence | protein stability index [1] | protein stability index [2] | protein stability index [3] | protein stability index [4]
70 | SPTSRPPWAVDPAFAERYAPDKTS [PDLIM7] | 4.63 ± 0.21 | 4.7 ± 0.31 |  | 
71 | AEGLANGPDVLETDGLQEVPLCSC [EHMT1] | 4.75 ± 0.2 | 5 ± 0.31 |  | 
72 | EFAGSSPQSSKSTVVKSLIDNSSE [FAN1] | 5.08 ± 0.27 | 5.28 ± 0.12 |  | 
73 | HASSYISPEKEEQYIAQFTSQFLS [PRAME] | 3.06 ± 0.44 | 3.31 ± 0.27 |  | 
74 | QHEESTEGEADHSGYAGELGFRAF [UFD1] | 4.81 ± 0.31 | 4.88 ± 0.31 |  | 
75 | KGTILYLQKDEYRPDKALSEGDLK [PSD2] | 3.99 ± 0.21 | 4.04 ± 0.18 |  | 
76 | HDSVVEMIRKGGDQTSLLVVDKET [PDZK1] |  | 4.76 ± 0.33 |  | 
77 | LAAAPEGLEDAGLDPHFVPTELWP [TEX19] | 4.06 ± 0.11 | 4.19 ± 0.24 |  | 
78 | SLARLQQLLFVIFLLLYLFTLGTN [OR10K2] | 2.78 ± 0.51 | 2.13 ± 0.53 |  | 
79 | MAAMFNGNYMEAKSVLIPVYGVSK [RHOBTB3] | 2.27 ± 0.35 | 2.12 ± 0.33 |  | 
80 | LPYTDGLSWELLDSHLGGNARGMG [CTBP1-DT] | 2.98 ± 0.28 | 3.29 ± 0.14 |  | 
81 | LRRPRPVQRTQSVPVRRPARRRQS [RASAL3] | 4.99 ± 0.29 | 5.19 ± 0.35 |  | 
82 | KPARKRRRRSRKKPSGALGSESYK [EHMT1] | 5.11 ± 0.27 | 5.28 ± 0.14 |  | 
83 | MAEAEGVPTTPGPASGSTFRGRRD [RETREG3] | 5.12 ± 0.39 | 5.22 ± 0.14 |  | 
84 | SMAKEVIAKELSKTYQETPEIDMF [ZBED1] | 4.11 ± 0.21 | 4.05 ± 0.18 |  | 
85 | LHVAARYGHELLINTLITSGADTA [ANKRD44] | 2.52 ± 0.28 | 2.44 ± 0.72 |  | 
86 | MFSVLSYGRLVARAVLGGLSQTDP [PPTC7] | 2.01 ± 0.74 | 2.85 ± 1.3 |  | 
87 | DLVNRTPWKKCCFSGDGEYIVAGS [RBBP5] | 2.64 ± 0.25 | 2.37 ± 0.21 |  | 
88 | YFAIKQEVVTPDNMCMGRTSRGKL [ETS1] | 3.5 ± 0.23 | 3.49 ± 0.22 |  | 
89 | RVYFLKGGYETFYSEYPECCVDVK [DUSP5] | 2.09 ± 0.23 | 2.46 ± 0.55 |  | 
